Changes are numbered by the printed parent chain. In names and notes the source's numbering stands. Where two headings read alike, the source gives them in different places.
Experiments:
[1] = target: T1, human NMI (N-myc Interacting protein), recombinant protein (human, UniProt Q13287 1-307, limits assumed); experiment: sandwich ELISA; detection 94C4-1-biotin 1µg/mL; hNMI 390.625 pg/mL
T1 construct: Gene ID: 9111; also called hNMI; antigen
T1 sequence (looked up): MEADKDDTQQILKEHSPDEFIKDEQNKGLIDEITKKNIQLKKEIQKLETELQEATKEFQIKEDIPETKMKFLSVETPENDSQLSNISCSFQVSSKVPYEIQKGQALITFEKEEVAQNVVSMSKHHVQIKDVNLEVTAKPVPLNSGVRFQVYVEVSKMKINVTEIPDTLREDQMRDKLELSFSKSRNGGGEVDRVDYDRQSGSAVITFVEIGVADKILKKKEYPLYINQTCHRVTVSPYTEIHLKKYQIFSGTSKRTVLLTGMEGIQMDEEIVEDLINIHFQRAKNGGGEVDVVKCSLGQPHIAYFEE

[2] = target: T1, human NMI (N-myc Interacting protein), …; experiment: sandwich ELISA; detection 94C4-1-biotin 0.5µg/mL; hNMI 97.656 pg/mL
[3] = target: T1, human NMI (N-myc Interacting protein), …; experiment: sandwich ELISA; detection 94C4-1-biotin 1µg/mL; hNMI 1,562.500 pg/mL
[4] = target: T1, human NMI (N-myc Interacting protein), …; experiment: sandwich ELISA; detection 94C4-1-biotin 1µg/mL; hNMI 6,250.000 pg/mL
[5] = target: T1, human NMI (N-myc Interacting protein), …; experiment: sandwich ELISA; detection 94C4-1-biotin 0.5µg/mL; hNMI 1,562.500 pg/mL
[6] = target: T1, human NMI (N-myc Interacting protein), …; experiment: indirect ELISA, coated hNMI
[7] = target: T1, human NMI (N-myc Interacting protein), …; experiment: ELISA, binding to hNMI
[8] = target: T1, human NMI (N-myc Interacting protein), …; experiment: sandwich ELISA; detection 94C4-1-biotin 1µg/mL; hNMI 50,000.000 pg/mL
[9] = target: T1, human NMI (N-myc Interacting protein), …; experiment: sandwich ELISA; detection 94C4-1-biotin 1µg/mL; hNMI 25,000.000 pg/mL
[10] = target: T1, human NMI (N-myc Interacting protein), …; experiment: sandwich ELISA; detection 94C4-1-biotin 1µg/mL; hNMI 781.250 pg/mL
[11] = target: T1, human NMI (N-myc Interacting protein), …; experiment: ELISA, binding to hNMI; remark: listed apart in the source
[12] = target: T1, human NMI (N-myc Interacting protein), …; experiment: sandwich ELISA; detection 94C4-1-biotin 1µg/mL; hNMI 97.656 pg/mL
[13] = target: T1, human NMI (N-myc Interacting protein), …; experiment: sandwich ELISA; detection 94C4-1-biotin 1µg/mL; hNMI 3,125.000 pg/mL
[14] = target: T1, human NMI (N-myc Interacting protein), …; experiment: sandwich ELISA; detection 94C4-1-biotin 0.5µg/mL; hNMI 781.250 pg/mL
[15] = target: T1, human NMI (N-myc Interacting protein), …; experiment: sandwich ELISA; detection 94C4-1-biotin 0.5µg/mL; hNMI 50,000.000 pg/mL
[16] = target: T1, human NMI (N-myc Interacting protein), …; experiment: sandwich ELISA; detection 94C4-1-biotin 1µg/mL; hNMI 48.828 pg/mL
[17] = target: T1, human NMI (N-myc Interacting protein), …; experiment: sandwich ELISA; detection 94C4-1-biotin 0.5µg/mL; hNMI 195.313 pg/mL
[18] = target: T1, human NMI (N-myc Interacting protein), …; experiment: sandwich ELISA; detection 94C4-1-biotin 0.5µg/mL; hNMI 25,000.000 pg/mL
[19] = target: T1, human NMI (N-myc Interacting protein), …; experiment: sandwich ELISA; detection 94C4-1-biotin 1µg/mL; hNMI 12,500.000 pg/mL
[20] = target: T1, human NMI (N-myc Interacting protein), …; experiment: sandwich ELISA; detection 94C4-1-biotin 0.5µg/mL; hNMI 390.625 pg/mL
[21] = target: T1, human NMI (N-myc Interacting protein), …; experiment: sandwich ELISA; detection 94C4-1-biotin 0.5µg/mL; hNMI 6,250.000 pg/mL
[22] = target: T1, human NMI (N-myc Interacting protein), …; experiment: sandwich ELISA; detection 94C4-1-biotin 0.5µg/mL; hNMI 3,125.000 pg/mL
[23] = target: T1, human NMI (N-myc Interacting protein), …; experiment: sandwich ELISA; detection 94C4-1-biotin 1µg/mL; hNMI 195.313 pg/mL
[24] = target: T1, human NMI (N-myc Interacting protein), …; experiment: sandwich ELISA; detection 94C4-1-biotin 0.5µg/mL; hNMI 12,500.000 pg/mL
[25] = target: T1, human NMI (N-myc Interacting protein), …; experiment: sandwich ELISA; detection 94C4-1-biotin 0.5µg/mL; hNMI 48.828 pg/mL
[26] = target: T1, human NMI (N-myc Interacting protein), …; experiment: ELISA EC50 against parent B-8
[27] = target: T1, human NMI (N-myc Interacting protein), …; experiment: ELISA EC50 against parent B-8; remark: listed apart in the source
[28] = target: T1, human NMI (N-myc Interacting protein), …; experiment: ELISA, binding to hNMI; remark: listed apart in the source

B1: monoclonal antibody 98G10 (antibody, V domains shown)
VH: QEQLEESGGDLVKPEGSLTLTCTASGFSFSASYWICWVRQAPGKGLEWIACIYGGSSGSAYYASWAKGRFTISKTSSTTVTLQMTSLTAADTATYFCARAGYYNYGSAGDIYPSSFKLWGPGTLVTVSS
VL: DIVMTQTPASVEAAVGGTVTINCQASQSISTALAWYQQKPGQPPKLLIYTASKVASGVPSRFSGSGSGTQFTLTISDLECADAATYYCQNYYYSSSSITFGGGTEVVVK
notes: Rabbit monoclonal antibody
- OD450 [1]: 0.233 OD450
- OD450 [2]: 0.126 OD450
- OD450 [3]: 0.525 OD450
- OD450 [4]: 1.53 OD450
- OD450 [5]: 0.596 OD450
- EC50 [6]: 0.071 µg/mL
- EC50 [7]: 0.031 µg/mL
- OD450 [8]: 3.04 OD450
- OD450 [9]: 2.74 OD450
- OD450 [10]: 0.341 OD450
- EC50 [11]: 0.165 nM
- OD450 [12]: 0.149 OD450
- OD450 [13]: 0.903 OD450
- OD450 [14]: 0.377 OD450
- OD450 [15]: 3.25 OD450
- OD450 [16]: 0.134 OD450
- OD450 [17]: 0.159 OD450
- OD450 [18]: 2.87 OD450
- OD450 [19]: 2.31 OD450
- OD450 [20]: 0.219 OD450
- OD450 [21]: 1.6 OD450
- OD450 [22]: 0.958 OD450
- OD450 [23]: 0.179 OD450
- OD450 [24]: 2.44 OD450
- OD450 [25]: 0.108 OD450

B2: monoclonal antibody 39B4 (antibody, V domains shown)
VH: QEQLVESGGGLVQPEGSLTLTCTASGFSFSSSYWICWVRQAPGKGLEWIACIYAGTSGSTYYASWAKGRFTISKTSSTTVDLQMNSLTAADTATYFCARAGYYTYGAGVYIYPSSFKLWGPGTLVTVSS
VL: B1 VL with I2V, N22K, Q27E, S30G, T31N, T50S, K53N, V54L, N90S
notes: Rabbit monoclonal antibody; also called 39B4-1
- OD450 [1]: 0.251 OD450
- OD450 [2]: 0.143 OD450
- OD450 [3]: 0.547 OD450
- OD450 [4]: 1.52 OD450
- OD450 [5]: 0.593 OD450
- EC50 [6]: 0.0535 µg/mL
- OD450 [8]: 3.1 OD450
- OD450 [9]: 2.75 OD450
- OD450 [10]: 0.381 OD450
- OD450 [12]: 0.169 OD450
- OD450 [13]: 0.932 OD450
- OD450 [14]: 0.387 OD450
- OD450 [15]: 3.16 OD450
- OD450 [16]: 0.145 OD450
- OD450 [17]: 0.179 OD450
- OD450 [18]: 2.75 OD450
- OD450 [19]: 2.15 OD450
- OD450 [20]: 0.25 OD450
- OD450 [21]: 1.56 OD450
- OD450 [22]: 0.96 OD450
- OD450 [23]: 0.207 OD450
- OD450 [24]: 2.3 OD450
- OD450 [25]: 0.13 OD450

B3: B-8 mutant G106K (VH) (antibody, V domains shown)
VH: QSLEESGGDLVKPGASLTLTCTASGFSFSSSYYMCWVRQAPGKGLEWIACIYAGSSGSTYYASWAKGRFTISKTSSTTVTLQMTSLTAADTATYFCAREYSYDDYKDFWGFNLWGPGTLVTVSS
VL: ALVMTQTPSSVSAAVGGTVTINCQASQNIYTNLAWYQQKPGQPPKLLIYGASNLESGVPSRFKGSGSGTEYTLTISDLECDDAATYYCQSSLYSRIADRANAFGGGTEVVVK
- Fold decrease in affinity [26]: > 100 fold

B4: B-8 mutant S101Y (VH) (antibody, V domains shown)
VH: B3 VH with S101Y, K106G
VL: B3 VL
- Fold decrease in affinity [26]: > 500 fold

B5: B-8 mutant T31V (VL) (antibody, V domains shown)
VH: B3 VH with K106G
VL: B3 VL with T31V
- Fold decrease in affinity [26]: > 100 fold

B6: B-8-5 (antibody, V domains shown)
VH: B3 VH with K106G, F111A
VL: B3 VL
notes: also called B-8 F111A (VH)
- Fold decrease in affinity [27]: 0.77 fold
- EC50 [28]: 0.238 nM

B7: B-8 mutant S101K (VH) (antibody, V domains shown)
VH: B3 VH with S101K, K106G
VL: B3 VL
- Fold decrease in affinity [26]: > 500 fold

Source: patent publication EP4682166A1 (Guangzhou Enmai Biotechnology Co., Ltd, dated 2026)
